# Source: IntAct's records for PubMed 29039417
# B1: BBSome complex member BBS4 (Homo sapiens), Q96RK4 (parent)
# chain: MAEERVATRTQFPVSTESQKPRQKKAPEFPILEKQNWLIHLHYIRKDYEACKAVIKEQLQETQGLCEYAIYVQALIFRLEGNIQESLELFQTCAVLSPQSADNLKQVARSLFLLGKHKAAIEVYNEAAKLNQKDWEISHNLGVCYIYLKQFNKAQDQLHNALNLNRHDLTYIMLGKIHLLEGDLDKAIEVYKKAVEFSPENTELLTTLGLLYLQLGIYQKAFEHLGNALTYDPTNYKAILAAGSMMQTHGDFDVALTKYRVVACAVPESPPLWNNIGMCFFGKKKYVAAISCLKRANYLAPFDWKILYNLGLVHLTMQQYASAFHFLSAAINFQPKMGELYMLLAVALTNLEDIENAKRAYAEAVHLDKCNPLVNLNYAVLLYNQGEKKNALAQYQEMEKKVSLLKDNSSLEFDSEMVEMAQKLGAALQVGEALVWTKPVKDPKSKHQTTSTSKPASFQQPLGSNQALGQAMSSAAAYRTLPSGAGGTSQFTKPPSLPLEPEPAVESSPTETSEQIREK
# partner: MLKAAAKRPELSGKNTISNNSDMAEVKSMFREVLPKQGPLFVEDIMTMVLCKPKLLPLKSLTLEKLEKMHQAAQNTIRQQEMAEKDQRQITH
# Variants of: B1
# Conditions: with bbip1_human BBIP1, A8MTZ0
row,Variant,effect of a mutation on the interaction
1,K400A,with no effect
2,K400E,with no effect
3,L411E,with no effect
4,L411A,with no effect
5,L411K,with no effect
6,Y395H,disrupting interaction strength
7,Y395K,with no effect
8,Y395E,with no effect
9,Y395A,with no effect
10,D407K,with no effect
11,D407A,with no effect
12,D407E,with no effect
13,Q396E,with no effect
14,Q396A,with no effect
15,Q396K,with no effect
16,E416A,with no effect
17,E416K,with no effect
18,E399A,with no effect
19,E399K,with no effect
20,A427E,with no effect
21,A427K,with no effect
22,N384A,with no effect
23,N384E,with no effect
24,N384Y,disrupting interaction strength
25,N384K,with no effect

row,Variant,effect of a mutation on the interaction
1,S403A,with no effect
2,S403K,with no effect
3,S403E,with no effect
4,M417E,with no effect
5,M417K,with no effect
6,M417A,with no effect
7,M398K,with no effect
8,M398A,with no effect
9,M398E,with no effect
10,K401A,with no effect
11,K401E,disrupting interaction strength
12,K401V,disrupting interaction strength
13,N408A,with no effect
14,N408K,with no effect
15,N408E,with no effect
16,A426K,with no effect
17,A426E,with no effect
18,L382P,disrupting interaction strength
19,L382E,with no effect
20,L382K,with no effect
21,L382A,with no effect
22,V418K,with no effect
23,V418E,with no effect
24,V418A,with no effect
25,L428P,disrupting interaction strength

row,Variant,effect of a mutation on the interaction
1,L428E,with no effect
2,L428A,with no effect
3,L428K,with no effect
4,K389E,with no effect
5,K389A,with no effect
6,A379E,with no effect
7,A379V,disrupting interaction strength
8,A379K,with no effect
9,Q429K,with no effect
10,Q429A,with no effect
11,Q429E,with no effect
12,Q394R,disrupting interaction strength
13,Q394A,with no effect
14,Q394L,disrupting interaction strength
15,Q394K,with no effect
16,Q394E,with no effect
17,L381P,disrupting interaction strength
18,L381E,with no effect
19,L381A,with no effect
20,L381K,with no effect
21,G386E,with no effect
22,G386K,with no effect
23,G386A,with no effect
24,F413E,with no effect
25,F413A,with no effect

row,Variant,effect of a mutation on the interaction
1,F413K,with no effect
2,E419K,with no effect
3,E419A,with no effect
4,S410A,with no effect
5,S410E,with no effect
6,S410K,with no effect
7,N390K,with no effect
8,N390E,with no effect
9,N390L,disrupting interaction strength
10,N390A,with no effect
11,D414K,with no effect
12,D414E,with no effect
13,D414A,with no effect
14,E397A,with no effect
15,E397K,with no effect
16,S409E,with no effect
17,S409K,with no effect
18,S409A,with no effect
19,E387G,disrupting interaction strength
20,E387K,with no effect
21,E387A,with no effect
22,V402A,with no effect
23,V402K,with no effect
24,V402E,with no effect
25,M420E,with no effect

row,Variant,effect of a mutation on the interaction
1,M420A,with no effect
2,M420K,with no effect
3,L424K,with no effect
4,L424S,disrupting interaction strength
5,L424E,with no effect
6,L424A,disrupting interaction strength
7,G431K,with no effect
8,G431A,with no effect
9,G431E,with no effect
10,E412K,with no effect
11,E412A,with no effect
12,N377C,disrupting interaction strength
13,N377E,with no effect
14,N377A,with no effect
15,N377R,disrupting interaction strength
16,N377K,with no effect
17,N377I,disrupting interaction strength
18,N377S,disrupting interaction strength
19,N377D,disrupting interaction strength
20,L404E,with no effect
21,L404K,with no effect
22,L404A,with no effect
23,V380A,disrupting interaction strength
24,V380K,with no effect
25,V380E,with no effect

row,Variant,effect of a mutation on the interaction
1,L376A,with no effect
2,L376R,disrupting interaction strength
3,L376E,with no effect
4,L376K,with no effect
5,L376P,disrupting interaction strength
6,V430A,with no effect
7,V430K,with no effect
8,V430E,with no effect
9,E432A,with no effect
10,Y378K,with no effect
11,Y378A,with no effect
12,Y378E,with no effect
13,L392A,with no effect
14,L392K,with no effect
15,L392E,with no effect
16,L392P,disrupting interaction strength
17,A391E,with no effect
18,A391V,disrupting interaction strength
19,A391K,with no effect
20,A391T,disrupting interaction strength
21,Y383E,with no effect
22,Y383A,with no effect
23,Y383K,with no effect
24,S415E,with no effect
25,S415K,with no effect

row,Variant,effect of a mutation on the interaction
1,S415A,with no effect
2,Q422E,with no effect
3,Q422K,with no effect
4,Q422A,with no effect
5,K388A,with no effect
6,K388E,with no effect
7,G425A,with no effect
8,G425E,with no effect
9,G425K,with no effect
10,N375K,with no effect
11,N375E,with no effect
12,A421K,with no effect
13,A421E,with no effect
14,A421V,disrupting interaction strength
15,Q385A,with no effect
16,Q385K,with no effect
17,Q385E,with no effect
18,K423A,with no effect
19,K423E,with no effect
20,K406A,with no effect
21,K406E,with no effect
22,L405A,with no effect
23,L405E,with no effect
24,L405K,with no effect
